Key:
[1] = target: T1, human tenascin-C rCd4-His-FBG (rat; human, UniProt P05540 207-392, limits assumed); assay: SPR, 25 C
T1 construct: domain: domains 3 and 4; C-terminal FBG fusion; biotinylated in the ELISA and HTRF screens; also called Hu TNC; human TNC rCd4-His-FBG; not shown: 6His tag
T1 sequence (chain (part 1 of 2)): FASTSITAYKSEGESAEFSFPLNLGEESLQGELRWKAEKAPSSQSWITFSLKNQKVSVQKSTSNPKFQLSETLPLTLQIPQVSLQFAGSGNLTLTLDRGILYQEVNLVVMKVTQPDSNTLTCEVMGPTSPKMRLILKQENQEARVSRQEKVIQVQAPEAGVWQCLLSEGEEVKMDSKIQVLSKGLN
T1 sequence (chain (part 2 of 2)): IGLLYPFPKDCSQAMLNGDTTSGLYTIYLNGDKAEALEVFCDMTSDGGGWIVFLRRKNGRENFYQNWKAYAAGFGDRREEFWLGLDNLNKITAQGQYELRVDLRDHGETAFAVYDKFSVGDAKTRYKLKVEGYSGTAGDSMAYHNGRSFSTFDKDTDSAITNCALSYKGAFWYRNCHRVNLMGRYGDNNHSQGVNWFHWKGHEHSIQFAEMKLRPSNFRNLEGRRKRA

human Fc-His-FBG = target: T2, human Fc-His-FBG (human, UniProt P24821 1974-2201); assay: cell-based or functional assay
T2 sequence: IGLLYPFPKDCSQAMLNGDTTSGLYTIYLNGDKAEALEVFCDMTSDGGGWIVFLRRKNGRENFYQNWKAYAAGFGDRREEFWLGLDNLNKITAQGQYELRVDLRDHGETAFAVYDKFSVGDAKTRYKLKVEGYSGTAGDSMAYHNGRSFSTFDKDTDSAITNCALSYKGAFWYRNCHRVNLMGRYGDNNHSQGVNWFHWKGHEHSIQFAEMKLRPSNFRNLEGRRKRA

[2] = target: T1, human tenascin-C rCd4-His-FBG; assay: SPR, captured Fab, 25 C
Protocol: (§1) Experiments were performed using a BIAcore T100 instrument with CM5 sensor chip according to the protocol provided with the Human Fab Capture Kit (GE, 28-9583-25). […] After reference signal subtraction, the data was fitted to a global 1:1 fit using the T100 BIAevaluation software (FIGS. 6 a-d).

[3] = target: T3, mouse tenascin-C rCd4-His-FBG (rat; mouse, UniProt P05540 207-392, limits assumed); assay: SPR, captured Fab, 25 C
T3 construct: domain: domains 3 and 4; C-terminal FBG fusion; biotinylated in the ELISA screen; also called Mu TNC; mouse TNC rCd4-His-FBG; not shown: 6His tag
T3 sequence (chain (part 1 of 2)): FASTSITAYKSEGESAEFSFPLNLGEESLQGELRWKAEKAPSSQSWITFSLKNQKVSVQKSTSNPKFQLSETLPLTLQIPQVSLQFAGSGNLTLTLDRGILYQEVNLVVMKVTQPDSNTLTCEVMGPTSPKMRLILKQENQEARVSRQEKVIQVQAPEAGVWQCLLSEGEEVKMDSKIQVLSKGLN
T3 sequence (chain (part 2 of 2)): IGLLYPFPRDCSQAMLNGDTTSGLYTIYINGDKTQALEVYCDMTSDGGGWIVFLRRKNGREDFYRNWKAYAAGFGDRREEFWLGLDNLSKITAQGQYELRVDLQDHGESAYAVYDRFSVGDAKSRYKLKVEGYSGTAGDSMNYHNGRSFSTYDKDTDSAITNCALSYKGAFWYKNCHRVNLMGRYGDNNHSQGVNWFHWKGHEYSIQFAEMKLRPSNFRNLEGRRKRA
Protocol: as §1

[4] = target: T4, rat tenascin-C rCd4-His-FBG (rat, UniProt P05540 207-392, limits assumed); assay: SPR, captured Fab, 25 C
T4 construct: domain: domains 3 and 4; C-terminal FBG fusion; also called Rat TNC; rat TNC rCD4-His-FBG; not shown: 6His tag
T4 sequence (chain (part 1 of 2)): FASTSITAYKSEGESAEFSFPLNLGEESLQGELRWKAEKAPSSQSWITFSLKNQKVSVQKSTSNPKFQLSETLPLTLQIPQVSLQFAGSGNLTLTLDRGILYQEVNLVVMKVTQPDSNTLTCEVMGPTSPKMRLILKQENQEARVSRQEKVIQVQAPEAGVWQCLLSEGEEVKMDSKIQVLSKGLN
T4 sequence (chain (part 2 of 2)): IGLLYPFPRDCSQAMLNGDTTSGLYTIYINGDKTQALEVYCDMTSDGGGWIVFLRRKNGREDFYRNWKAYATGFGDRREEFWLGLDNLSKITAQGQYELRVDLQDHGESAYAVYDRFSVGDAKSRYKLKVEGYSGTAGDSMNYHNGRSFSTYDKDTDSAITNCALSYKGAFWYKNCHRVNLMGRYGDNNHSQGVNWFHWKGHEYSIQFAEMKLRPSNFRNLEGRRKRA
Protocol: as §1

[5] = target: T5, human tenascin-R rCd4-His-FBG (rat; human, UniProt P05540 207-392, limits assumed); assay: SPR, captured Fab, 25 C
T5 construct: domain: domains 3 and 4; C-terminal FBG fusion; also called Hu TNR; human TNR rCd4-His-FBG; not shown: 6His tag
T5 sequence (chain (part 1 of 2)): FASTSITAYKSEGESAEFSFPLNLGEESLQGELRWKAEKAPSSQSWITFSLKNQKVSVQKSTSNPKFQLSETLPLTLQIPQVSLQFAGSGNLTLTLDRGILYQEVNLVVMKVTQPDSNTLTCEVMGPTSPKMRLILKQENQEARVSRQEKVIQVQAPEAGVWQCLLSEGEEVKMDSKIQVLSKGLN
T5 sequence (chain (part 2 of 2)): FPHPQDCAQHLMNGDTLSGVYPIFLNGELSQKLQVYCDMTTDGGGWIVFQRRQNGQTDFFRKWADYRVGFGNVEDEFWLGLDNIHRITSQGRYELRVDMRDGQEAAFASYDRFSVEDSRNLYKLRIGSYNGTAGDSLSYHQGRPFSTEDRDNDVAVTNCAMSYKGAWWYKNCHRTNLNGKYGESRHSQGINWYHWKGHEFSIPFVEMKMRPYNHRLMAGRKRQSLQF
Protocol: as §1

[6] = target: T3, mouse tenascin-C rCd4-His-FBG; assay: SPR steady state, captured Fab, 25 C
Protocol: as §1

[7] = target: T5, human tenascin-R rCd4-His-FBG; assay: SPR steady state, captured Fab, 25 C
Protocol: as §1

Human FGB-rCd4 = target: T6, Human FGB-rCd4; assay: ELISA (DELFIA), antigen coated on the well, purified Fab at 50 nM, detected with anti-kappa or anti-lambda mAb and Europium-conjugated anti-mouse mAb
T6 construct: Not the same construct as m1, which has the FBG at the C terminus; also called human TNC FBG-rCD4; human tenascin-C FBG-rCd4-His (FBG at the N terminus of the rat Cd4 tag); not shown: rat Cd4 (domains 3 and 4) tag, the C-terminal His6 tag and the vector-derived junction residues of pBIOCAM4
T6 chain: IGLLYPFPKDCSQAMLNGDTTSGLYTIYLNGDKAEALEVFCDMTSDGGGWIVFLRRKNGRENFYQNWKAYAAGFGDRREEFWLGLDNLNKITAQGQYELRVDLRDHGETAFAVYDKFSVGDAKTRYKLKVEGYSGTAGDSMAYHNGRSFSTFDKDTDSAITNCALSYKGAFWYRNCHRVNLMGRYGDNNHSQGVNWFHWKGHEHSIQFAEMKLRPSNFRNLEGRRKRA

fold stronger affinity than 2A5 [1]: ~100 fold
IC50, inhibition of Fc-His-HuFBG-evoked IL-8 release, THP1-Blue cells (human Fc-His-FBG): 6.9 nM
IC50, inhibition of Fc-His-HuFBG-evoked alkaline phosphatase, THP1-Blue cells (human Fc-His-FBG): 1.7 nM
Kd [2]: 0.111 nM
koff [2]: 0.0003 s⁻¹
kon [2]: 2.66e+06 M⁻¹ s⁻¹
Kd [3]: 13 nM
koff [3]: 0.0675 s⁻¹
kon [3]: 5.22e+06 M⁻¹ s⁻¹
Kd [4]: 7.9 nM
koff [4]: 0.0748 s⁻¹
kon [4]: 9.46e+06 M⁻¹ s⁻¹
Kd [5]: 33.9 nM
koff [5]: 0.0473 s⁻¹
kon [5]: 1.4e+06 M⁻¹ s⁻¹
Kd [6]: 18.7 nM
Kd [7]: 36.1 nM
binding result (Human FGB-rCd4): binds
B1: Fab B12 (Fab, V domains shown)
VH: QVQLVESGGGLVQPGRSLRLSCAASGFTFDDYAMHWVRQAPGKGLEWVSGISGSGGSTYYADSVKGRFTISRDNAKNSLYLQMNSLRAEDTALYYCAKDISAVPDTFDIWGQGTMVTVSS
VL: DIQMTQSPASLPTPVGDRVTITCRASQYIQGFLNWYQQKPGKAPKLLIYDASNLETGVPSRFSGSGSGTDFTLTISSLQPEDFATYYCQQSYSTPQTFGQGTKVDIKR
notes: monomeric Fab

Source: US20170306005A1 (NASCIENT, published 2017)
